Experiments:
[1] = test system: Human foreskin fibroblasts; experiment: Mitogenicity: 3H-thymidine incorporation; format: cell-based
Procedure: Mitogenicity was assayed substantially following the method described by D. J. Knauer et al, J Biol Chem (1984) 259:5623-31.
Human foreskin fibroblasts were obtained and frozen at the thirteenth passage. Thawed cells are trypsinized, pelleted, and resuspended in a medium containing DMEM, 5% FBS, 1 mM sodium pyruvate, 300 μg/mL L-glutamine, 100 U/mL penicillin, and 100 μg/mL streptomycin. The cells are counted using a hemocytometer and 0.4% trypan blue. The cell concentration is adjusted to 1×10^-5 cells/mL using the same medium, and dispensed onto microtiter plates (100 μL/well). The plates are incubated for 5 days in a tissue culture incubator.
EGF muteins prepared in Example 1 and native sequence EGF are dissolved to make 100 μg/mL solutions. These solutions are used to make serial dilutions of 20, 10, 5, 2.5, 1.25, 0.625, 0.3125, 0.15625, 0.078125, 0.0390625, 0.0195, and 0.00975 ng/mL. Ten μL of each dilution is added to a microtiter plate well, and the plates returned to the incubator and incubated at 37° C. for 18 hours. […]
The well contents are then solubilized using 0.3 N NaOH (50 μL/well) for 30 minutes, and transferred to scintillation vials. Scintillation fluid (Ready-Solv EP, 4 mL) is then added to each vial, and the vials counted for 1 min with a 0-1,000 (^3 H) window in a Beckman LS3801 counter.

[2] = target: T1, EGF receptor on fixed A431 cells (Homo sapiens, UniProt P00533); experiment: Receptor affinity: binding to fixed A431 cells; conditions: 1 nM, 2 hr at 37° C.
T1 construct: Confluent A43 1 cells were fixed in 96-well microtiter plates using 0.05% formaldehyde; endogenous in cells; host or cells: A431 cells, formaldehyde-fixed
Procedure: Confluent A43 1 cells were fixed in 96-well microtiter plates using 0.05% formaldehyde for 10 min at room temperature, then washed 3× with 200 μL PBS with 0.1% bovine serum albumin (BSA).
The wells were then washed 3× with 200 μL of PBS/0.1% BSA, detached, and counted in a gamma counter.

B1: .phi.EFG: EGF with N-terminal flag extension, additional sequence DWKDDDDK (protein)
chain: DWKDDDDKPQHWSCPEGTLAGNGNSTCVGPAPFLIFSHGNSIFRIDTEGTNYEQLVVDAGVSVIMDFHYNEKRIYWVDLERQLLQRVFLNGSRQERVCNIEKNVSGMAINWINEEVIWSNQQEGIITVTDMKGNNSHILLSALKYPANVAVDPVERFIFWSSEVAGSLYRADLDGVGVKALLETSEKITAVSLDVLDKRLFWIQYNREGSNSLICSCDYDGGSVHISKHPTQHNLFAMSLFGDRIFYSTWKMKTIWIANKHTGKDMVRINLHSSFVPLGELKVVHPLAQPKAEDDTWEPEQKLCKLRKGNCSSTVCGQDLQSHLCMCAEGYALSRDRKYCEDVNECAFWNHGCTLGCKNTPGSYYCTCPVGFVLLPDGKRCHQLVSCPRNVSECSHDCVLTSEGPLCFCPEGSVLERDGKTCSGCSSPDNGGCSQLCVPLSPVSWECDCFPGYDLQLDEKSCAASGPQPFLLFANSQDIRHMHFDGTDYGTLLSQQMGMVYALDHDPVENKIYFAHTALKWIERANMDGSQRERLIEEGVDVPEGLAVDWIGRRFYWTDRGKSLIGRSDLNGKRSKIITKENISQPRGIAVHPMAKRLFWTDTGINPRIESSSLQGLGRLVIASSDLIWPSGITIDFLTDKLYWCDAKQSVIEMANLDGSKRRRLTQNDVGHPFAVAVFEDYVWFSDWAMPSVMRVNKRTGKDRVRLQGSMLKPSSLVVVHPLAKPGADPCLYQNGGCEHICKKRLGTAWCSCREGFMKASDGKTCLALDGHQLLAGGEVDLKNQVTPLDILSKTRVSEDNITESQHMLVAEIMVSDQDDCAPVGCSMYARCISEGEDATCQCLKGFAGDGKLCSDIDECEMGVPVCPPASSKCINTEGGYVCRCSEGYQGDGIHCLDIDECQLGEHSCGENASCTNTEGGYTCMCAGRLSEPGLICPDSTPPPHLREDDHHYSVRNSDSECPLSHDGYCLHDGVCMYIEALDKYACNCVVGYIGERCQYRDLKWWELRHAGHGQQQKVIVVAVCVVVLVMLLLLSLWGAHYYRTQKLLSKNPKNPYEESSRDVRSRRPADTEDGMSSCPQPWFVVIKEHQDLKNGGQPVAGEDGQAADGSMQPTSWRQEPQLCGMGTEQGCWIPVSSDKGSCPQVMERSFHMPSYGTQTLEGGVEKPHSLLSANPLWQQRALDPPHQMELTQ
Mitogenicity [1]: 56 percentage of control (EGF) | Affinity [2]: 32 percentage of control (EGF)

Source: US5547935A (Chiron Corporation, priority 1994, dated 1996)
